In article PMC10786891, “Massively parallel profiling of RNA-targeting CRISPR-Cas13d”:

T1: EsCas13d, nuclease-dead (Eubacterium siraeum, UniProt B0MS50, R295A;H300A;R849A;H854A)
T1 sequence: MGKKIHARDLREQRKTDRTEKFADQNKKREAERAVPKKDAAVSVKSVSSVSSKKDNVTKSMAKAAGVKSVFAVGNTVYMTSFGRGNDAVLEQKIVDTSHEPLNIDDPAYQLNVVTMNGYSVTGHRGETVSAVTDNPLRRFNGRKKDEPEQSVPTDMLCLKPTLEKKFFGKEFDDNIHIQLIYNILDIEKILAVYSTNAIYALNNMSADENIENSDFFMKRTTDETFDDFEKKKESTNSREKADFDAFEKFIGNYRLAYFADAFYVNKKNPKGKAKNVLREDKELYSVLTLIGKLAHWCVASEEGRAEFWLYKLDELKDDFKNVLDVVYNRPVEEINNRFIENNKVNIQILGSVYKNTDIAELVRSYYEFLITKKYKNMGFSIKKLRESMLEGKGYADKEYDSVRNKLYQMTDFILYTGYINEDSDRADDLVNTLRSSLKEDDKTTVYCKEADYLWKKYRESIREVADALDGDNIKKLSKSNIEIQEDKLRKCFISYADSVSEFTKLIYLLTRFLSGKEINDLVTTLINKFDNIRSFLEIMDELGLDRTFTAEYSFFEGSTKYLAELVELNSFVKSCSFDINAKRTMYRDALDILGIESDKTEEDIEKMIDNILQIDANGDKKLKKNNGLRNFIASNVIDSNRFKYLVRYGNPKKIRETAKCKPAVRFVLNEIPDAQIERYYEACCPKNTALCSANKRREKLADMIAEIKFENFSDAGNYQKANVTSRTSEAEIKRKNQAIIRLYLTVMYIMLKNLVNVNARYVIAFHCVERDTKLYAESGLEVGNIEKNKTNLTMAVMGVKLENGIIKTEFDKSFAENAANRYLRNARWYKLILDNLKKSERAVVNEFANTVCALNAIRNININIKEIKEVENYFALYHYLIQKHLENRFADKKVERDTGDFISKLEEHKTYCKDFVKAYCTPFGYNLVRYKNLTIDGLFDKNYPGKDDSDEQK


Molecular target: T1, EsCas13d, nuclease-dead
Test: crRNA (strand 1, pre-loaded); Mg2+; 40 mM Tris-HCl pH 7.5, 150 mM NaCl, 6 mM MgCl2, 1 mM DTT, 0.1% Tween-20, 0.2 mg/ml BSA; 25 C; 10 min per concentration, then washed
Conditions: tags: His6-TwinStrep-SUMO cleaved; N-terminal SNAP kept (SNAP-Surface 488); label: 3' end held by stalled T7 RNA polymerase

| Binder | Kd [nM] |
| --- | --- |
| target 2 MT 5'PFS GUU 3'PFS CCG (mixed) RNA 1: CACCCGUGCAAAAUUGCAGGGGUCUAAAACCUUCUCCAAAUUGUUUCAUCCU RNA 2: GGGAAUGGAUCCACAUCUACGAAUUCGUUAGGAUGAAACAAUUUGGAGAAGCCGAGAUCGGAAGAGCACACGU | 14.3 ± 1.2 |
| target 2 MT 5'PFS UAG 3'PFS CCC (mixed) RNA 1: CACCCGUGCAAAAUUGCAGGGGUCUAAAACCUUCUCCAAAUUGUUUCAUCCU RNA 2: GGGAAUGGAUCCACAUCUACGAAUUCUAGAGGAUGAAACAAUUUGGAGAAGCCCAGAUCGGAAGAGCACACGU | 24 ± 9 |
| target 2 MT 5'PFS GAA 3'PFS CAA (mixed) RNA 1: CACCCGUGCAAAAUUGCAGGGGUCUAAAACCUUCUCCAAAUUGUUUCAUCCU RNA 2: GGGAAUGGAUCCACAUCUACGAAUUCGAAAGGAUGAAACAAUUUGGAGAAGCAAAGAUCGGAAGAGCACACGU | 4.9 ± 0.7 |
| target 2 MT 5'PFS CAU 3'PFS AUA (mixed) RNA 1: CACCCGUGCAAAAUUGCAGGGGUCUAAAACCUUCUCCAAAUUGUUUCAUCCU RNA 2: GGGAAUGGAUCCACAUCUACGAAUUCCAUAGGAUGAAACAAUUUGGAGAAGAUAAGAUCGGAAGAGCACACGU | 3.31 ± 0.27 |
| target 2 MT 5'PFS CAU 3'PFS AUC (mixed) RNA 1: CACCCGUGCAAAAUUGCAGGGGUCUAAAACCUUCUCCAAAUUGUUUCAUCCU RNA 2: GGGAAUGGAUCCACAUCUACGAAUUCCAUAGGAUGAAACAAUUUGGAGAAGAUCAGAUCGGAAGAGCACACGU | 3.3 ± 0.5 |
| target 2 MT 5'PFS GGG 3'PFS UCC (mixed) RNA 1: CACCCGUGCAAAAUUGCAGGGGUCUAAAACCUUCUCCAAAUUGUUUCAUCCU RNA 2: GGGAAUGGAUCCACAUCUACGAAUUCGGGAGGAUGAAACAAUUUGGAGAAGUCCAGAUCGGAAGAGCACACGU | 52 ± 14 |
| target 2 MT 5'PFS UCA 3'PFS CUU (mixed) RNA 1: CACCCGUGCAAAAUUGCAGGGGUCUAAAACCUUCUCCAAAUUGUUUCAUCCU RNA 2: GGGAAUGGAUCCACAUCUACGAAUUCUCAAGGAUGAAACAAUUUGGAGAAGCUUAGAUCGGAAGAGCACACGU | 5 ± 0.9 |
| target 2 MT 5'PFS GAA 3'PFS CAC (mixed) RNA 1: CACCCGUGCAAAAUUGCAGGGGUCUAAAACCUUCUCCAAAUUGUUUCAUCCU RNA 2: GGGAAUGGAUCCACAUCUACGAAUUCGAAAGGAUGAAACAAUUUGGAGAAGCACAGAUCGGAAGAGCACACGU | 7 ± 1.5 |
| target 2 MT 5'PFS GGG 3'PFS UCG (mixed) RNA 1: CACCCGUGCAAAAUUGCAGGGGUCUAAAACCUUCUCCAAAUUGUUUCAUCCU RNA 2: GGGAAUGGAUCCACAUCUACGAAUUCGGGAGGAUGAAACAAUUUGGAGAAGUCGAGAUCGGAAGAGCACACGU | 11.5 ± 0.8 |
| target 2 MT 5'PFS GAA 3'PFS CAG (mixed) RNA 1: CACCCGUGCAAAAUUGCAGGGGUCUAAAACCUUCUCCAAAUUGUUUCAUCCU RNA 2: GGGAAUGGAUCCACAUCUACGAAUUCGAAAGGAUGAAACAAUUUGGAGAAGCAGAGAUCGGAAGAGCACACGU | 6.6 ± 0.6 |
| target 2 MT 5'PFS UGC 3'PFS AGG (mixed) RNA 1: CACCCGUGCAAAAUUGCAGGGGUCUAAAACCUUCUCCAAAUUGUUUCAUCCU RNA 2: GGGAAUGGAUCCACAUCUACGAAUUCUGCAGGAUGAAACAAUUUGGAGAAGAGGAGAUCGGAAGAGCACACGU | ~60 |
| target 2 MT 5'PFS AAU 3'PFS CAU (mixed) RNA 1: CACCCGUGCAAAAUUGCAGGGGUCUAAAACCUUCUCCAAAUUGUUUCAUCCU RNA 2: GGGAAUGGAUCCACAUCUACGAAUUCAAUAGGAUGAAACAAUUUGGAGAAGCAUAGAUCGGAAGAGCACACGU | 3 ± 0.6 |
| target 2 MT 5'PFS GGG 3'PFS UCA (mixed) RNA 1: CACCCGUGCAAAAUUGCAGGGGUCUAAAACCUUCUCCAAAUUGUUUCAUCCU RNA 2: GGGAAUGGAUCCACAUCUACGAAUUCGGGAGGAUGAAACAAUUUGGAGAAGUCAAGAUCGGAAGAGCACACGU | 11.3 ± 1.5 |
| target 2 MT 5'PFS GAA 3'PFS CAU (mixed) RNA 1: CACCCGUGCAAAAUUGCAGGGGUCUAAAACCUUCUCCAAAUUGUUUCAUCCU RNA 2: GGGAAUGGAUCCACAUCUACGAAUUCGAAAGGAUGAAACAAUUUGGAGAAGCAUAGAUCGGAAGAGCACACGU | 8.6 ± 1.7 |
| target 2 MT 5'PFS AAU 3'PFS ACA (mixed) RNA 1: CACCCGUGCAAAAUUGCAGGGGUCUAAAACCUUCUCCAAAUUGUUUCAUCCU RNA 2: GGGAAUGGAUCCACAUCUACGAAUUCAAUAGGAUGAAACAAUUUGGAGAAGACAAGAUCGGAAGAGCACACGU | 7.5 ± 1.3 |
| target 2 MT 5'PFS CAU 3'PFS AUU (mixed) RNA 1: CACCCGUGCAAAAUUGCAGGGGUCUAAAACCUUCUCCAAAUUGUUUCAUCCU RNA 2: GGGAAUGGAUCCACAUCUACGAAUUCCAUAGGAUGAAACAAUUUGGAGAAGAUUAGAUCGGAAGAGCACACGU | 4.1 ± 0.6 |
| target 2 MT 5'PFS UGC 3'PFS AGA (mixed) RNA 1: CACCCGUGCAAAAUUGCAGGGGUCUAAAACCUUCUCCAAAUUGUUUCAUCCU RNA 2: GGGAAUGGAUCCACAUCUACGAAUUCUGCAGGAUGAAACAAUUUGGAGAAGAGAAGAUCGGAAGAGCACACGU | 26 ± 9 |
| target 2 MT 5'PFS GCG 3'PFS CGA (mixed) RNA 1: CACCCGUGCAAAAUUGCAGGGGUCUAAAACCUUCUCCAAAUUGUUUCAUCCU RNA 2: GGGAAUGGAUCCACAUCUACGAAUUCGCGAGGAUGAAACAAUUUGGAGAAGCGAAGAUCGGAAGAGCACACGU | 30 ± 12 |
| target 2 MT 5'PFS CAU 3'PFS AUG (mixed) RNA 1: CACCCGUGCAAAAUUGCAGGGGUCUAAAACCUUCUCCAAAUUGUUUCAUCCU RNA 2: GGGAAUGGAUCCACAUCUACGAAUUCCAUAGGAUGAAACAAUUUGGAGAAGAUGAGAUCGGAAGAGCACACGU | 4 ± 0.7 |
| target 2 MT 5'PFS GUU 3'PFS CCA (mixed) RNA 1: CACCCGUGCAAAAUUGCAGGGGUCUAAAACCUUCUCCAAAUUGUUUCAUCCU RNA 2: GGGAAUGGAUCCACAUCUACGAAUUCGUUAGGAUGAAACAAUUUGGAGAAGCCAAGAUCGGAAGAGCACACGU | ~90 |
| target 2 MT 5'PFS AUU 3'PFS UCA (mixed) RNA 1: CACCCGUGCAAAAUUGCAGGGGUCUAAAACCUUCUCCAAAUUGUUUCAUCCU RNA 2: GGGAAUGGAUCCACAUCUACGAAUUCAUUAGGAUGAAACAAUUUGGAGAAGUCAAGAUCGGAAGAGCACACGU | 7 ± 0.8 |
| target 2 MT 5'PFS CAG 3'PFS ACA (mixed) RNA 1: CACCCGUGCAAAAUUGCAGGGGUCUAAAACCUUCUCCAAAUUGUUUCAUCCU RNA 2: GGGAAUGGAUCCACAUCUACGAAUUCCAGAGGAUGAAACAAUUUGGAGAAGACAAGAUCGGAAGAGCACACGU | 5.3 ± 2.1 |
| target 2 MT 5'PFS UGC 3'PFS AGC (mixed) RNA 1: CACCCGUGCAAAAUUGCAGGGGUCUAAAACCUUCUCCAAAUUGUUUCAUCCU RNA 2: GGGAAUGGAUCCACAUCUACGAAUUCUGCAGGAUGAAACAAUUUGGAGAAGAGCAGAUCGGAAGAGCACACGU | 19.7 ± 1.9 |
| target 2 MT 5'PFS GCG 3'PFS CGU (mixed) RNA 1: CACCCGUGCAAAAUUGCAGGGGUCUAAAACCUUCUCCAAAUUGUUUCAUCCU RNA 2: GGGAAUGGAUCCACAUCUACGAAUUCGCGAGGAUGAAACAAUUUGGAGAAGCGUAGAUCGGAAGAGCACACGU | 14.4 ± 3 |
| target 2 MT 5'PFS GGG 3'PFS UCU (mixed) RNA 1: CACCCGUGCAAAAUUGCAGGGGUCUAAAACCUUCUCCAAAUUGUUUCAUCCU RNA 2: GGGAAUGGAUCCACAUCUACGAAUUCGGGAGGAUGAAACAAUUUGGAGAAGUCUAGAUCGGAAGAGCACACGU | 12.1 ± 0.8 |
| target 1 insC 3' of 17,insC 3' of 15 (mixed) RNA 1: CACCCGUGCAAAAAUGCAGGGGUCUAAAACUGAGCGGAUAACCUCUCUAUGG RNA 2: GGGAAUGGAUCCACAUCUACGAAUUCGUACCAUAGCAGCAGGUUAUCCGCUCACCGAGAUCGGAAGAGCACACGU | 38 ± 6 |
| target 1 A1G,C6G (mixed) RNA 1: CACCCGUGCAAAAAUGCAGGGGUCUAAAACUGAGCGGAUAACCUCUCUAUGG RNA 2: GGGAAUGGAUCCACAUCUACGAAUUCGUACCAUAGAGAGGUUAUCGGCUCGCCGAGAUCGGAAGAGCACACGU | 7.3 ± 0.4 |
| target 1 insG 3' of 10,insC 3' of 8 (mixed) RNA 1: CACCCGUGCAAAAAUGCAGGGGUCUAAAACUGAGCGGAUAACCUCUCUAUGG RNA 2: GGGAAUGGAUCCACAUCUACGAAUUCGUACCAUAGAGAGGUUGAUCCCGCUCACCGAGAUCGGAAGAGCACACGU | 27.8 ± 1.9 |
